The values below come from patent publication US20230331852A1 (OSE IMMUNOTHERAPEUTICS, published 2023).

The target in test [1] is T1, human CLEC-1A expressed on the cell membrane (human, UniProt Q8NC01 1-280).
T1 construct: Endogenous on human U266 myeloma cells, on monocyte-derived TGFb-DC and macrophages; on CHO cells after transduction with a Clec-1 expressing lentivirus; also called U266 CLEC1; CLEC-1A on U266 cells
T1 sequence: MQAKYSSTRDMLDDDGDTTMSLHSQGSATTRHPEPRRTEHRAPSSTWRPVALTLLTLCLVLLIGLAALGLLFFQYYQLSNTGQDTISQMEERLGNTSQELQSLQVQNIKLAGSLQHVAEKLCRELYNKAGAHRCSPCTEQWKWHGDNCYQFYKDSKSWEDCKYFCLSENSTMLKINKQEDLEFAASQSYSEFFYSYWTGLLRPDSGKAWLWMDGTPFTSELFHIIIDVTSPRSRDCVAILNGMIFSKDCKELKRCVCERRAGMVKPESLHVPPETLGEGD
Put plainly: flow cytometry on U266 cells; printed as ED50, read-out Mean.

Test [2] has as its target T1, human CLEC-1A expressed on the cell …. Put plainly: flow cytometry on U266 cells; printed as ED50, read-out % + cells.
Test [3] concerns the target T2, recombinant human CLEC-1 protein with His Tag (#1704-CL R&D Systems) (human, UniProt Q8NC01 74-280).
T2 construct: Bought protein; also called His-CLEC1; His Clec-1; not shown: His tag
T2 sequence: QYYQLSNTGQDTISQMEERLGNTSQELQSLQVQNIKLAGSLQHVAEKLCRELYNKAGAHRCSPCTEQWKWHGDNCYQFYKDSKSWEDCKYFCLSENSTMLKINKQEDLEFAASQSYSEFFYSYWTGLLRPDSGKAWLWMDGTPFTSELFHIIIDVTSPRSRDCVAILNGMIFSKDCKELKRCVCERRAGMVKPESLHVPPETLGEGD
Put plainly: ELISA on immobilised human His-CLEC1 (column hm His Clec); given as ED50. The procedure:
Method: The binding activity of the anti-hCLEC1 antibodies was assessed by ELISA (Enzyme-linked immunosorbent assay). […] A second ELISA assays was performed, like above, with immobilization of CLEC1-Fc (OSE Immunotherapeutics) at 2 μg/ml. A third ELISA assays was performed to see the cross-reactivity with mouse CLEC1. Like above, ELISA was made with immobilization of mouse Fc-CLEC1 (OSE Immunotherapeutics) at 2 μg/ml in carbonate buffer instead of His-Clec. Purified antibodies were added at different concentrations to measure binding. […] Control antibody is a commercial anti-CLEC-1A antibody.

Test [4] has as its target T2, recombinant human CLEC-1 protein with …. The test is described as follows: Blitz biolayer interferometry, His-CLEC1 on Ni-NTA biosensor, antibody at 20 ug/mL. The procedure:
(§1) Analysis was performed with a BLItz System (Fortébio, #C22-2 No 61010-1, Molecular Devices, San José, USA).
(§2) The affinity of the anti-hCLEC1 antibodies, was measured with Blitz system (Forté Bio, C22-2 No 61010-1).

For test [5], the target named is T3, Fc-CLEC1 labelled with Alexa Fluor 488 (human, Alexa Fluor 488 label (sites not given)).
T3 construct: also called Fc-CLEC1-A488; Alexa488-Fc-Clec-1
T3 chain: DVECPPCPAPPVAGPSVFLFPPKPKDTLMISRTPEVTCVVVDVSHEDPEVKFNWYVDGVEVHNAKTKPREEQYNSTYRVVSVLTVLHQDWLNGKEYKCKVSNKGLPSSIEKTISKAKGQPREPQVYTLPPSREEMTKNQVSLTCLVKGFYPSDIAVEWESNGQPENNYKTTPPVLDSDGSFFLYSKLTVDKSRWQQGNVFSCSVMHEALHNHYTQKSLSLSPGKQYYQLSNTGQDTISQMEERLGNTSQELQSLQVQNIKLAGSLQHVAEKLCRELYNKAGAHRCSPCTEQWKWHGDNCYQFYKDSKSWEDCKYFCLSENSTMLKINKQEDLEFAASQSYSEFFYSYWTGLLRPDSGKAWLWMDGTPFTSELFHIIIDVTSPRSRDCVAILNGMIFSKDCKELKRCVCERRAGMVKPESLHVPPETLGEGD
Put plainly: FACS competition: blocks Fc-CLEC1-A488 (10 nM) binding to CLEC-1 ligand on UV-treated PBMC; read-out Mean. The procedure:
(§3) Methods. To measure competition on permeabilised Raji (CytoFix/cytoperm kit, BD Biosciences) which expressed CLEC1 ligand, Fc-CLEC1-labelled A488 which bound specifically to permeabilised Raji was used. To measure competition, Fc-CLEC1 labelled A488 at 10 nM or 20 nM was mixed with mouse anti-hCLEC1 at different concentrations for 15 min at RT then added on these cells for 30 min at 4° C. […] To measure competition on PMBC, we used human PBMC pre-treated by UV for 18 h to obtain apoptotic PBMC, which expressed CLEC1 ligand. Fc-CLEC1-labelled A488 bound specifically apoptotic UV-treated PBMC. To measure competition, Fc-CLEC1 labelled A488 at 10 nM was mixed with mouse anti-hCLEC1 at different concentrations for 15 min at RT then added on these cells for 30 min at 4° C.

Test [6] has as its target T3, Fc-CLEC1 labelled with Alexa Fluor 488. Put plainly: FACS competition: blocks Fc-CLEC1-A488 (10 nM) binding to CLEC-1 ligand on UV-treated PBMC; read-out % + cells. The procedure:
as §3

Test [7] has the same target. The test is described as follows: FACS competition: blocks Fc-CLEC1-A488 (10 nM) binding to CLEC-1 ligand on permeabilised Raji cells; read-out Mean. The procedure:
as §3

Test [8] shares this target. The test is described as follows: FACS competition: blocks Fc-CLEC1-A488 (20 nM) binding to CLEC-1 ligand on permeabilised Raji cells; read-out Mean. The procedure: as §3
Test [9] shares this target. Put plainly: FACS competition: blocks Fc-CLEC1-A488 (10 nM) binding to CLEC-1 ligand on permeabilised Raji cells; read-out % + cells. The procedure: as §3
Test [10] has the same target. The test is described as follows: FACS competition: blocks Fc-CLEC1-A488 (20 nM) binding to CLEC-1 ligand on permeabilised Raji cells; read-out % + cells. The procedure:
as §3

The target in test [11] is T2, recombinant human CLEC-1 protein with …. Put plainly: BLI (Blitz), CLEC1-His on Ni-NTA biosensor, antibody at 20 ug/mL; murine clone, FIG. 16. The procedure: as §1, §2

B1: murine anti-hCLEC1 antibody 14H9-F3 (antibody, V domains shown)
VH: QVQLKESGPGLVAPSQSLSITCTISGFSLTTYGIHWVRQPPGKGLEWLVVIWSDGSTIYNSALKSRLSISKDNSKSQVFLKMNSLQTDDTAIYYCARHGGYYNYFDYWGQGTTLTVSS
VL: DIQMNQSPSSLSASLGDTITITCHASQNINVWLSWYQQKPGNIPKLLIYKASNLHTGVPSRFSGSGSGTTFTLTIDSLQPEDIATYYCQQGQSYWTFGGGTKLEIK
notes: Mouse hybridoma antibody
B1: the concentration for a half-maximal effect (EC50) in [1] was 0.072 µg/mL; in test [2], 0.0065 µg/mL; in [3] it was 0.157 µg/mL. The Kd in [4] amounted to 8.24 nM. For the same molecule, the koff in [4] came to 0.00074 s⁻¹. The kon in test [4] was found to be 89800 M⁻¹ s⁻¹. The IC50 in test [5] is 3.1 µg/mL; in test [6], 0.031 µg/mL; in [7], 0.84 µg/mL; in test [8], 2.5 µg/mL; in test [9], 3.2 µg/mL; in test [10], 22 µg/mL.

B2: murine anti-hCLEC1 antibody 21B1-E10 (antibody, V domains shown)
VH: QVQLKESGPGLVAPSQSLSITCTISGFSLTTYGIHWVRQPPGKGLEWLVVIWSDGSTIYNSALKSRLSISKDNSKSQVFLKMNSLQTDDTAIYYCARHGGYYNYFDYWGQGTTLTVSS
VL: DIVMSQSPSSLAVSVGEKVTLTCKSTQNLFYSTNQKNYLAWYQQKPGQSPKLLIYWASTRESGVPDRFTGSGSGTDFTLTISSVKAEDPAVYYCQQYYTYPWTFGGGTKLEIK
notes: tied to the 21B1 variable domains by name
As for B2, the Kd in [11] is around 1 nM.

B3: murine anti-hCLEC1 antibody 5D1-A5 (antibody, V domains shown)
VH: QVQLKESGPGLVAPSQSLSITCTISGFSLTSYGVHWVRQPPGKGLEWLVVIWSDGSTIYNSALKSRLSISKDNSKSQVFLKMNSLQTDDTAMYYCARHGGYYNYFDYWGQGTTLTVSS
VL: DIQMNQSPSSLSASLGDTITITCHASQNINVWLSWYQQKPGNIPKLLIYKASNLHTGVPSRFSGSGSGTGFTLTISSLQPEDIATYYCQQGQSYWTFGGGTKLEIK
notes: Mouse hybridoma antibody
Consider B3, for which the results for the EC50 in [1], in test [2] and in test [3] were 0.12 µg/mL, 0.0064 µg/mL and 1.31 µg/mL, respectively. In [4], the Kd was determined as 16.1 nM. In addition, the koff in test [4] was determined as 0.00124 s⁻¹. The kon in test [4] was 76600 M⁻¹ s⁻¹. In addition, the IC50 was 3.8 µg/mL in test [5]; 0.13 µg/mL in test [6]; 4.4 µg/mL in test [7]; 3.1 µg/mL in test [8]; 12 µg/mL in [9]; 0.21 µg/mL in test [10].

B4: murine anti-hCLEC1 antibody 6C5-A4 (antibody, V domains shown)
VH: QVQLQQSGPELVKPGASVKMSCKASGYTFTDYVISWVKQKTGQGLEWIGEIYPGSGNTYYNEKFKGKATLTADKSSSTAYIHLSSLTSEDSAVYFCAGGGSSHFDYWGQGTTLTVSS
VL: not shown
notes: Mouse hybridoma antibody
Take B4: the values for the EC50 in test [1], in test [2] and in [3] were 0.17 µg/mL, 0.051 µg/mL and 0.012 µg/mL, respectively. Moreover, in [4], the Kd amounted to 14.7 nM. In addition, in test [4], the koff was 0.000934 s⁻¹. Also, in test [4], the kon amounted to 63400 M⁻¹ s⁻¹. The IC50 in test [5] amounted to 2.2 µg/mL; in test [6] it was 2 µg/mL; in [7], 1.7 µg/mL; in test [8] it was 1.7 µg/mL; in test [9], 19 µg/mL; in test [10] it was 1.5 µg/mL.

B5: murine anti-hCLEC1 antibody 10F4-H2 (antibody, V domains shown)
VH: QVQLQQSGTELARPGASVKMSCKASGYIFTDYTIHWVKQRPGQGLEWVGYINPSSGYTNYNQKFKAKATLTADKSSSTAYMQLSSLTSEDSAVYYCTPMFRRSYFDYWGQGTTLTVSS
VL: DAVMTQTPLSLPVSLGDQASISCRSSQSLENSNGNTYLNWYLQKPGQSPQLLIYRVSNRFSGVLDRFSGSGSGTDFTLKISRVEAEDLGVYFCLQVTHVPYTFGGGTKLEIK
notes: Mouse hybridoma antibody
Regarding B5, the EC50 in [1] was found to be 0.22 µg/mL; in test [2], 0.034 µg/mL; in test [3], 0.0128 µg/mL. Further, the Kd in [4] worked out at 5.72 nM. Besides, the koff in [4] came to 0.000621 s⁻¹. The kon in test [4] is 109000 M⁻¹ s⁻¹. Also, the IC50 in test [5] came to 2.8 µg/mL; in test [6] it was 0.79 µg/mL; in [7], 2.1 µg/mL; in test [8] it was 2.5 µg/mL; in test [9] it was 11 µg/mL; in [10], 0.82 µg/mL.

B6: murine anti-hCLEC1 antibody 15E3-G3 (antibody, V domains shown)
VH: QVQLQQSGPELVKPGASVKMSCKASGFTFTDYVIAWVKVRTGQGLEWIGEIYPGSGSIYYNEKFKGKATLTADKSSNTAYMQLSSLTSEDSAVYFCASSTVVAFDYWGQGTTLTVSS
VL: EIVLTQSPTTLAASPGEKIIITCSDSSSISSNYLHWYQQKPGFSPKLLIYGTSNLASGVPARFSGSGSGTTYSLTIGTMEAEDVATYYCQQGSSIPRTFGGGTKLEIK
notes: Mouse hybridoma antibody
On to B6, for which the EC50 in test [1] was 0.59 µg/mL; in test [2], 0.074 µg/mL; in [3], 0.0466 µg/mL. For the same molecule, the Kd in [4] came to 14 nM. Besides, in test [4], the koff turned out to be 0.00101 s⁻¹. Further, the kon in test [4] worked out at 72200 M⁻¹ s⁻¹. Moreover, the IC50 in [5] was 4.5 µg/mL; in test [6] it was 0.69 µg/mL; in [7], 1.3 µg/mL; in [8], 3 µg/mL; in test [9] it was 7.7 µg/mL; in test [10] it was 14 µg/mL.
